Source: paper doi:10.1101/2021.12.11.472236 (bioRxiv, 2021)

Tests used:
[1] = molecular target: RBD of Rf1 (Bat SARS CoV Rf1/2004, UniProt Q0QDZ0); assay: ELISA
[2] = molecular target: SARS-CoV-2 WA1 RBD (SARS-CoV-2, UniProt P0DTC2); assay: crystal structure

B1: 10-40 (antibody, V domains shown)
VH: QLQLQESGPGLVKPSETLSLTCTVSGGSISSSNFYWGWIRQPPGKGLEWIASITYSGRTFYNPSLKSRVAISVDTSKNQFSLKLSSVTAADTAVYYCARTFPSYYDRSGYHYLNYGMDVWGQGTTVTVSS
VL: NFMLTQPHSMSESPGKTVTISCTRSSGSIASNYVQWYQQRPGSSPTTVIYEDNQRPSGVPDRFSGSIDSSSNSASLTISGLKTEDEADYYCQSYDSSSWVFGGGTKLTVL
[1]
  binding result: binds

B2: 10-40 Fab (Fab, V domains shown)
VH: QLQLQESGPGLVKPSETLSLTCTVSGGSISSSNFYWGWIRQPPGKGLEWIASITYSGRTFYNPSLKSRVAISVDTSKNQFSLKLSSVTAADTAVYYCARTFPSYYDRSGYHYLNYGMDVWGQGTTVTVSS
VL: NFMLTQPHSMSESPGKTVTISCTRSSGSIASNYVQWYQQRPGSSPTTVIYEDNQRPSGVPDRFSGSIDSSSNSASLTISGLKTEDEADYYCQSYDSSSWVFGGGTKLTVL
[2]
  binding result: binds

B3: 10-28 (antibody, V domains shown)
VH: QVQLVESGGGVVQPGRSLRLSCAASGFTFSSYDMHWVRQAPGKGLEWVAVISYDGSSKFYAESVKGRFTISRDNSKNTLYLQMNSLRAEETAVYYCVKDGEQLVPLFDYWGQGTLVTVSS
VL: not shown
[1]
  binding result: binds

B4: 10-28 Fab (Fab, V domains shown)
VH: QVQLVESGGGVVQPGRSLRLSCAASGFTFSSYDMHWVRQAPGKGLEWVAVISYDGSSKFYAESVKGRFTISRDNSKNTLYLQMNSLRAEETAVYYCVKDGEQLVPLFDYWGQGTLVTVSS
VL: not shown
[2]
  binding result: binds
